FireProtDB (doi:10.1021/bi00358a035)
Several values for one entry are separate records, joined by “and”; a condition that tells them apart may be missing. Identical values can stand only once.

Conditions: Escherichia coli (strain K12); pH 7.8; 25 °C; Urea; CD; Potassium phosphate 10 mM; transition: 3; reversible: yes (>90%); whole UniProt chain shown

B1: Tryptophan synthase alpha chain wild type, P0A877 (protein)
chain: MERYESLFAQLKERKEGAFVPFVTLGDPGIEQSLKIIDTLIEAGADALELGIPFSDPLADGPTIQNATLRAFAAGVTPAQCFEMLALIRQKHPTIPIGLLMYANLVFNKGIDEFYAQCEKVGVDSVLVADVPVEESAPFRQAALRHNVAPIFICPPNADDDLLRQIASYGRGYTYLLSRAGVTGAENRAALPLNHLVAKLKEYNAAPPLQGFGISAPDQVKAAIDAGAAGAISGSAIVKIIEQHINEPEKMLAALKVFVQPMKAATRS
For B1, the denaturant m value was 2.2 kcal/mol/M and 1.2 kcal/mol/M, the “denaturant midpoint (higher = more stable)” value was 2.62 M and 4.18 M and the unfolding free energy was 23.8 kJ/mol and 20.9 kJ/mol.
